± gives the uncertainty stated by the source.
B1: Membrane-associated guanylate kinase, WW and PDZ domain-containing protein 2, residues 601 to 682; numbered along this chain, Q86UL8 (parent)
chain: AELMTLTIVKGAQGFGFTIADSPTGQRVKQILDIQGCPGLCEGDLIVEINQQNVQNLSHTEVVDILKDCPIGSETSLIIHRG

Variants of: B1
Experiment: abundance fitness (aPCA) (normalised: wild type 0, dead -1); higher = more abundant; growth selection in yeast, the domain comes from the species named
Settings: Homo sapiens

In order of falling abundance fitness:
1. E74H  0.241 ± 0.47
2. N56E  0.221 ± 0.23
3. V62C  0.181 ± 0.29
4. E74P  0.149 ± 0.12
5. T60A  0.146 ± 0.081
6. I19H  0.134 ± 0.13
7. Q35A  0.086 ± 0.15
8. Q35H  0.08 ± 0.29
9. D64Y  0.08 ± 0.19
10. N56P  0.072 ± 0.1
11. G14D  0.07 ± 0.046
12. G39H  0.069 ± 0.25
13. Q35G  0.052 ± 0.11
14. H80D  0.043 ± 0.14
15. L3K  0.042 ± 0.038
16. Q26K  0.038 ± 0.06
17. K67R  0.034 ± 0.089
18. T5M  0.029 ± 0.068
19. L32S  0.024 ± 0.09
20. G43D  0.023 ± 0.21
21. S22Q  0.023 ± 0.1
22. L32D  0.022 ± 0.16
23. Q52N  0.017 ± 0.046
24. L6H  0.007 ± 0.073
25. I65V  0.006 ± 0.037
26. I71V  0.006 ± 0.089
27. Q55R  0.004 ± 0.052
28. F15L  0.004 ± 0.03
29. L6F  0.003 ± 0.091
30. S76Q  0 ± 0.1
31. Q13G  0 ± 0.036
32. G16C  -0.002 ± 0.047
33. P70R  -0.003 ± 0.067
34. I71M  -0.004 ± 0.099
35. K29G  -0.004 ± 0.087
36. H80G  -0.006 ± 0.076
37. Q26T  -0.007 ± 0.055
38. H59N  -0.009 ± 0.27
39. A1C  -0.015 ± 0.32
40. G82R  -0.016 ± 0.082
41. V63W  -0.017 ± 0.11
42. T7F  -0.017 ± 0.068
43. P23L  -0.018 ± 0.042
44. L6V  -0.021 ± 0.036
45. C41R  -0.022 ± 0.029
46. G82T  -0.023 ± 0.22
47. N53D  -0.025 ± 0.043
48. A20K  -0.026 ± 0.18
49. E42L  -0.028 ± 0.05
50. C69A  -0.029 ± 0.07
51. P23Q  -0.029 ± 0.056
52. T24C  -0.03 ± 0.066
53. L3A  -0.03 ± 0.033
54. Q26G  -0.032 ± 0.04
55. Q13A  -0.037 ± 0.039
56. V54T  -0.037 ± 0.035
57. E2C  -0.039 ± 0.054
58. E61C  -0.039 ± 0.11
59. S22Y  -0.04 ± 0.23
60. Q51M  -0.042 ± 0.047
61. G39N  -0.043 ± 0.24
62. A12C  -0.044 ± 0.056
63. I79F  -0.046 ± 0.17
64. S73P  -0.048 ± 0.1
65. L77F  -0.05 ± 0.38
66. N56S  -0.053 ± 0.1
67. S76T  -0.053 ± 0.087
68. I65C  -0.053 ± 0.063
69. D68G  -0.057 ± 0.1
70. F17I  -0.057 ± 0.057
71. L6M  -0.059 ± 0.049
72. G16E  -0.059 ± 0.043
73. I65S  -0.059 ± 0.04
74. D64V  -0.06 ± 0.063
75. M4I  -0.061 ± 0.054
76. M4N  -0.063 ± 0.076
77. C69L  -0.064 ± 0.11
78. V47C  -0.066 ± 0.09
79. D21H  -0.068 ± 0.45
80. G36R  -0.069 ± 0.08
81. E74W  -0.069 ± 0.096
82. I34P  -0.072 ± 0.068
83. Q52L  -0.072 ± 0.03
84. L6S  -0.075 ± 0.042
85. N53I  -0.076 ± 0.04
86. S22T  -0.076 ± 0.11
87. I65Q  -0.079 ± 0.047
88. T75G  -0.08 ± 0.063
89. E42N  -0.087 ± 0.11
90. T5Q  -0.088 ± 0.05
91. G14M  -0.089 ± 0.046
92. V47S  -0.09 ± 0.069
93. V47W  -0.09 ± 0.11
94. I34R  -0.092 ± 0.043
95. G14R  -0.093 ± 0.033
96. E2Y  -0.094 ± 0.064
97. Q52W  -0.095 ± 0.049
98. E42R  -0.1 ± 0.052
99. I71D  -0.101 ± 0.17
100. Q13W  -0.101 ± 0.044
101. Q30V  -0.102 ± 0.07
102. T7S  -0.103 ± 0.037
103. G43S  -0.104 ± 0.087
104. Q55L  -0.106 ± 0.072
105. K10R  -0.107 ± 0.03
106. P70T  -0.108 ± 0.12
107. L40A  -0.108 ± 0.17
108. D64F  -0.112 ± 0.2
109. A1G  -0.113 ± 0.065
110. Q30T  -0.117 ± 0.19
111. S76I  -0.118 ± 0.14
112. A12Y  -0.119 ± 0.061
113. K10G  -0.125 ± 0.032
114. T7V  -0.126 ± 0.038
115. P23D  -0.129 ± 0.1
116. Q26N  -0.139 ± 0.12
117. H59I  -0.142 ± 0.16
118. A20N  -0.142 ± 0.17
119. L6W  -0.147 ± 0.043
120. G14A  -0.152 ± 0.036
121. R27S  -0.158 ± 0.096
122. E48W  -0.158 ± 0.12
123. T5Y  -0.159 ± 0.057
124. L32Y  -0.16 ± 0.3
125. T60Y  -0.165 ± 0.2
126. L6N  -0.166 ± 0.074
127. G14I  -0.168 ± 0.039
128. Q55S  -0.172 ± 0.097
129. S58P  -0.174 ± 0.088
130. E74A  -0.185 ± 0.088
131. Q30E  -0.188 ± 0.14
132. D64A  -0.191 ± 0.09
133. L3P  -0.2 ± 0.037
134. L6P  -0.204 ± 0.053
135. Q30C  -0.205 ± 0.16
136. G43W  -0.206 ± 0.099
137. I79A  -0.214 ± 0.14
138. Q13I  -0.218 ± 0.05
139. G11W  -0.223 ± 0.054
140. H80M  -0.23 ± 0.27
141. G43M  -0.261 ± 0.17
142. G16I  -0.268 ± 0.052
143. Q51I  -0.269 ± 0.048
144. C69D  -0.27 ± 0.13
145. Q35K  -0.278 ± 0.24
146. P23V  -0.297 ± 0.04
147. Q30N  -0.302 ± 0.48
148. L6G  -0.315 ± 0.032
149. I31H  -0.316 ± 0.31
150. E74C  -0.322 ± 0.17
151. T75C  -0.331 ± 0.2
152. V62Q  -0.336 ± 0.13
153. I49T  -0.371 ± 0.34
154. K10F  -0.372 ± 0.064
155. S22N  -0.39 ± 0.17
156. K29I  -0.395 ± 0.29
157. K10W  -0.446 ± 0.046
158. L66W  -0.521 ± 0.12
159. G25L  -0.538 ± 0.056
160. F17A  -0.697 ± 0.05
161. V54K  -0.855 ± 0.1
162. D44T  -0.95 ± 0.26
163. I49S  -0.97 ± 0.49
164. V28E  -1.03 ± 0.27
165. I8D  -1.07 ± 0.12
166. L77E  -1.12 ± 0.38
167. F17N  -1.36 ± 0.36

Reference: the Human Domainome abundance scans (Beltran et al. 2025)
